Consider two substances from PMC11266248.

pKd: −log10 of the molar value. Values joined by “and” are separate entries in the source; they are usually repeats but may differ in a detail not shown here. Equal values may be shown once.

Assay [1] has as its target recombinant factor H-like protein 1 (human) (UniProt P08603). Briefly: SPR; Biacore T100, CM5 chip; FH (750 RU), rFHL-1 or rFH15-20 (200 RU) amine-coupled as ligands; CspZ or FhbA as analytes; PBS with 0.05% Tween20, 25 °C, 30 µl/min; single-cycle and multiple-cycle kinetics, Langmuir 1:1 model; in duplicate.
Assay [2] addresses factor H binding A (FhbA) from Borrelia hermsii (Borrelia hermsii). Briefly: LC-HRMS (ESI-Q-TOF); ACE C4 column, 0.1% formic acid/acetonitrile gradient, ESI+, deconvolution with UniDec.
The target of assay [3] is purified human complement factor H from human plasma/serum (human) (UniProt P08603). Description: SPR; Biacore T100, CM5 chip; FH (750 RU), rFHL-1 or rFH15-20 (200 RU) amine-coupled as ligands; CspZ or FhbA as analytes; PBS with 0.05% Tween20, 25 °C, 30 µl/min; single-cycle and multiple-cycle kinetics, Langmuir 1:1 model; in duplicate. (SPR reads the build-up and loss of mass on a sensor chip optically.)
Chain of purified human complement factor H from human plasma/serum (human) (P08603 19-1231): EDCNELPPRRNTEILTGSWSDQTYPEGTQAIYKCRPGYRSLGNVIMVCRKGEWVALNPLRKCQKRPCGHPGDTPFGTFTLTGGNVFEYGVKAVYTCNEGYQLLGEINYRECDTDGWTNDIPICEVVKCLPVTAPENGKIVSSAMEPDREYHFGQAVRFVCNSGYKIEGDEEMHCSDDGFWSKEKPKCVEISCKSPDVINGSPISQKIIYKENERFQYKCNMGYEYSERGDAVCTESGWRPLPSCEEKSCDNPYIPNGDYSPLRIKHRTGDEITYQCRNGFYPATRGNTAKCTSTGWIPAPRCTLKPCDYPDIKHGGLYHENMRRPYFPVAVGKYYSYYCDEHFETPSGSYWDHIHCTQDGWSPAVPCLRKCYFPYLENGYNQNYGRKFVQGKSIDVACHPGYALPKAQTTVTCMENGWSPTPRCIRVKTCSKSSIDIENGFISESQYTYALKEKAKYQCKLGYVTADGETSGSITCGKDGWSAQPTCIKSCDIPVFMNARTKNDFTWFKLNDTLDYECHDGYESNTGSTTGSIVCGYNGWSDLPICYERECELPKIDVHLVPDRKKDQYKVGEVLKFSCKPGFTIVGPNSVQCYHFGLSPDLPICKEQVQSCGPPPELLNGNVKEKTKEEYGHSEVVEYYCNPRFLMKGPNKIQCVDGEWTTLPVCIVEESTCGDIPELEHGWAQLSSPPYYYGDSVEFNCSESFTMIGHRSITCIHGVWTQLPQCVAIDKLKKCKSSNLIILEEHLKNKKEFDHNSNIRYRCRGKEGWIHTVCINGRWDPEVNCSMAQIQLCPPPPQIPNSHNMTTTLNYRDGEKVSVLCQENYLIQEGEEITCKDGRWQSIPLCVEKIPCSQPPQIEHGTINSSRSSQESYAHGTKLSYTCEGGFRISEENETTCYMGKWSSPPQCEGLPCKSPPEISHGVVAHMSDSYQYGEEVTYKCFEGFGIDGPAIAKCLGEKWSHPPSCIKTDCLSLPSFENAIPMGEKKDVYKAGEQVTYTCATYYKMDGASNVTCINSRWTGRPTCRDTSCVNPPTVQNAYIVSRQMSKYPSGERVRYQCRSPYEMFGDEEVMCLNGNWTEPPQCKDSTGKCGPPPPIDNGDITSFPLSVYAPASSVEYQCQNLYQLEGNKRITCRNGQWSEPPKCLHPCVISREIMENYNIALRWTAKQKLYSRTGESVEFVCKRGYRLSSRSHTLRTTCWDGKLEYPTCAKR

The target of assay [4] is recombinant factor H SCR15-20 (human) (UniProt P08603). The assay is described as above.
Chain of recombinant factor H SCR15-20 (human) (P08603 860-1231): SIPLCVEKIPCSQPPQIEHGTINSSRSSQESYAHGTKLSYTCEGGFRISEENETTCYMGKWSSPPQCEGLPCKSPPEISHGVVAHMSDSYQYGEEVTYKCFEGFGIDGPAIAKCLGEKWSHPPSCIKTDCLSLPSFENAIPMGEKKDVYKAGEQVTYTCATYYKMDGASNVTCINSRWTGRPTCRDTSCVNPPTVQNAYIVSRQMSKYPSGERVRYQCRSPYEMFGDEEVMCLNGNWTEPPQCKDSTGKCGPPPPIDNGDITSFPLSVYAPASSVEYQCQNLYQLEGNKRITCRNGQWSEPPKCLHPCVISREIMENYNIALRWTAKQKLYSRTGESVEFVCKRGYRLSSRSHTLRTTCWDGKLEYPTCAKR
In assay [5] the target is factor H binding A (FhbA) from Borrelia hermsii (Borrelia hermsii). Briefly: SEC-MALS; Superdex 200 increase 10/300 GL in PBS, 0.7 mL/min; 100 µL injected at about 3.75 mg/mL (CspZ) or 2.50 mg/mL (FhbA). (In general: SEC sorts molecules by how far they enter the pores of the column.)

A word on the pKd: it is the negative decadic logarithm of the Kd, by convention in mol/L. By koff is commonly meant a measure of how fast the partners let go of each other. As a reminder, the kon is a measure of how fast the partners come together. A word on the stoichiometry N: it is a count of units in the complex or per binding partner.

Chain of recombinant factor H-like protein 1 (human) (P08603 other isoform, or with tags, fused parts or gaps): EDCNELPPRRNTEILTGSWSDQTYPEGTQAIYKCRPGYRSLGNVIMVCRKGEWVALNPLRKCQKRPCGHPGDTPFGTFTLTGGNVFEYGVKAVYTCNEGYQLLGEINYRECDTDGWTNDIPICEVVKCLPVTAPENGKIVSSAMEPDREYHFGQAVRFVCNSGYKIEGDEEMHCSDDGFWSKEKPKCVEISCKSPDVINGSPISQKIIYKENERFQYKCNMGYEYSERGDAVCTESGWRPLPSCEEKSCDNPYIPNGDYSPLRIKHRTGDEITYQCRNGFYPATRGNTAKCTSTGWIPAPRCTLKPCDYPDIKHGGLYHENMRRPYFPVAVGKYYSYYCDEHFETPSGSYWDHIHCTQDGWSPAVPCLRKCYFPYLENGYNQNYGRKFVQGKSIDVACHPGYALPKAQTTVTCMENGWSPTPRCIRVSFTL

Turning to “CspZ from Borrelia burgdorferi sensu stricto (complement regulator-acquiring surface protein 2) (from UniProt O50665 1-236) (natural protein)”, in assay [1], the pKd was 10.36, the koff came out at 3.1e-05 s⁻¹ and the kon stood at 720000 M⁻¹ s⁻¹.

“factor H binding A (FhbA) from Borrelia hermsii (natural protein)” displayed a stoichiometry N in assay [2] of 2. In assay [3], this substance showed a pKd of 8.96, a koff of 0.000268 s⁻¹ and a kon of 246000 M⁻¹ s⁻¹. Also, in assay [4], the pKd was 8.47, the koff came to 0.000266 s⁻¹ and the kon is 85400 M⁻¹ s⁻¹. In assay [1], the pKd is 7.37, the koff turned out to be 6.74e-05 s⁻¹ and the on-rate (kon) was determined as 1570 M⁻¹ s⁻¹. In assay [5], the representation of the dimer peak (46.2 kDa) in the sample (%) came out at 27%; the representation of the pentamer peak (119.0 kDa) in the sample (%) was 1%; the representation of the trimer peak (71.7 kDa) in the sample (%) stood at 6%; the stoichiometry N was 2 and 3 and 5.
